From the domain aggregation screens of Martell et al. (2025)

Assay: soluble fraction after stress (log2 fold change); higher = more stays soluble; pooled small domains, quantitative proteomics
Details: stress: pH 4
Summary of the method: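 Aggregation propensity here comes from the fold change in the soluble amount of each small protein domain after acid stress, measured in pooled custom libraries by high-throughput quantitative proteomics. The acid stress was pH 4. On the log2 scale, higher values mean more of the domain stayed soluble.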

Going from “HMGVGVTAPLAGNIFKIVKQPGDVVASGDVVLILEAMKMETEIRAAAGGTVKQVLVREGDAVDAGHTLMTL” to “HMSKPLEVFKLTSEPFGFSFNTALGRSYTVEATGDLGVWKAVELFQGSGGEIRFTAKPTSSGGAQFFRVFV”, the “soluble fraction (log2)” value rises from -1.59 to -0.225.

“HMPFDWSAFDWKGWADEALAIIKTANQDQMNKWTEDNEKIIVQAETAAPDIYKTVGDEYDKKMESFN” and “HMDNPYEVFIPNSYIGQRLDQTLASLFPQFSRSRLQNWLASGNLLVNGKIVKPKTKILGGEQINILDPYN” are within 0.2 log units of each other in “soluble fraction (log2)” value: 0.0448 for the first, 0.17 for the second.

Going from “HMATVHVDGIQYDFSSPEQAKEFAYKWAKKHNLTWEVHGETIHIK” to “HMYFFNTFTQRLFDNPELTQEEAIRQMYPGISGVQTAEKLQENFMADVYIQAAIRQEIVVQLIR”, the “soluble fraction (log2)” value rises from -0.0405 to 0.22.

First: HMQQPVVVQQNQTVRVVTGGPGFQVANEGRALNNGLAGQVVQVRLGNGQIISGIARAGGIVEIL
Second: HMGPLDIAQLKSDFLGGDAQLARRAWDQLATKAGDEGRDFLISSLGSSDPQIRNRVALGIHES
The “soluble fraction (log2)” value of the first is higher: 0.22 for the first, -0.152 for the second.

“HMGSTVRIVVPAADIPAYKDIQPSDLEYREVPKDEISEDAVTDPQEVINKYSTSPLYAGWPINKNIIET” and “HMPLTKKLETLFSLFPKYEKELKKKGVTRIHVWANYKEEYPDGIGRSQFIHYYSFWKKQVSP” are within 0.2 log units of each other in “soluble fraction (log2)” value: -0.202 for the first, -0.045 for the second.

Compared with “HMDDINVSNSKNIVPNVTGHTGSKAIPVLENLGLDVQYSGFGKVTNQSIPAGTRFKKGETIYLMLE”, “HMHDLDALTGLSGEARSKVYEEGSVFVAGEMWSAKSDAVIPAGSSIRVVRREGFILVVEKDS” is lower in “soluble fraction (log2)” value: -0.0218 for the first, -1.97 for the second.

First: HMNRQTGTVKWFNDAKGFGFITPESGPDLFVHFRSIQGAGFKSLQEGQRVTFVAVQGQKGMQADQVQA
Second: HMATHWHITPNPNNGKFLISGLMQDDSFHLMDASGQWLRQLRTVNQELDLDLQPGVYFLKDNSGSVMKFVV
The “soluble fraction (log2)” value of the first is higher: -0.429 for the first, -1.15 for the second.

First: HMSTRLIGEIGVVTKDLGAGLKENGSIQIGREEWPAETKDMEHIPMGTRVKVIHIEGTRLVVEA
Second: HMQAPVVNHDLIKSFERQWREIKATAKGKVRSVNLSDARSILQSFLNTLQKGPGTDSLISSVQNELSLIA
The “soluble fraction (log2)” value of the first is lower: -0.266 for the first, 0.00595 for the second.

First: HMSYEDLIQAVSGHFGIEIRALLSEDRKKENMIPRQVAMYLLKNKLHYTYERIGNIFSGRNHTAVMYSV
Second: HMGSKKITIYVSGEVKNPGIVTLNSDQRLASAVEKLGGVTENADMNNINLAMKLEDEMHYIIPKKGEK
The “soluble fraction (log2)” value of the first is lower: -0.403 for the first, 0.149 for the second.

First: HMDRETEEYELIRAKLEWLYQKQTGTIRNQTAKILHHLEIAKEEGNYYLYLKIKEEAKQWLVQASMYLD
Second: HMLDVGDQLVKKLKDNDSLDFHFVNSKEANKGLKDGDYYMVITIPSNFSKNATTLLDKNPKKMVLNYTTNP
The “soluble fraction (log2)” value of the first is lower: -0.725 for the first, 0.13 for the second.

Going from “HMRQFEPVEGYNPYADKNELHGYEYWGAKFADSRSPEETAWIKQQIDDENEDRRFISEAGLA” to “HMSRESNISTGRQLLEAQLPTWGYKKVEDIPSKQMKTALDAFNYKDVESLLQGLGEGSVALTTALRRLMP”, the “soluble fraction (log2)” value falls from -0.446 to -0.926.

Going from “HMDEVVVVERGGVQITMSEIDAKIMELPVDVRPSYLDSPERLQNFVSNLLLEKQAAQLKSQY” to “HMQAPHLALSPREFQVLQGLLAGDALDIIAERLHLSAKTVSNHQTLIRQKLGVGNAVELLRYAQLHRL”, the “soluble fraction (log2)” value rises from -1.42 to -0.661.

Going from “HMSDPSAQADALFNEGKTAEAFNVLLRLIEDSPEDQREDYRVRLLDLFRIAGNTPEVKAARRRLSALLM” to “HMDGVPPAGSRIRLTVSTQVGDKEFEGTLVPPAGVDLLTLKLANGYNLSHSIADVREVVLIEEGLQGEEP”, the “soluble fraction (log2)” value falls from -0.101 to -2.05.

Going from “HMSNEKVVKFAQELLVDEERSAISPALISAKIDQVLMFKPAWNEGLDRDAVVNELVRRFSIW” to “HMSSKSDQLYLQLRRRISAMKDGEPFPTVRQLMTEYQVSQSTVTPAINQLKEKGLIEAYVGRGSFVSKK”, the “soluble fraction (log2)” value rises from -1.19 to 0.161.

Going from “HMGSQELIQLGERIRQKRKDSHLTQETFAEKAGISVNTVSRIEGGQAAMSIEIFAKLVEILDADANELLG” to “HMHDYYDSIDAVTHDKSYESNLVFALKLGYTETQLQKALLKLGKKAREDQILEELIRIQKSSKA”, the “soluble fraction (log2)” value rises from -1.07 to ≥ 0.43.

First: HMDKINQEAIEDEAGLWLAKIDGRQLAQEEVRELIAWMRRSDFHREYLITLARQWDGMAALNKLATLFP
Second: HMSDRFVRIVMNDGTVKLGQMISEDADFIRLKTNNLGELNIPKYLVLDMMDLTRSEYVRLSISNAG
The “soluble fraction (log2)” value of the first is lower: -1.4 for the first, -0.426 for the second.

Compared with “HMFTEPQKLVKRILNMLGHRYDDASIQARSDFQASNNYHKVQVKKKRESMEEYTAWLEEMYDAYRIN”, “HMEQNTKAYEQVRTLTDLLNQYRHEYYNLSAPSVSDQEYDRLFDALAALEKQTGIVMSNSPTQTVG” is lower in “soluble fraction (log2)” value: 0.0985 for the first, -0.497 for the second.

First: HMDAVTYAKGSSGETVREIQQLLLDWGYYSGEVDGIFGSRTEDAVEYFQRKNGLTVDGKVGPATLEALGIS
Second: HMDPSKLVEVQEPVSMKALSEGLGIKVTELIATFAFKLKIGGKNINSMLSNDEVELVALDLERNIKVV
The “soluble fraction (log2)” value of the first is lower: -0.349 for the first, -0.0335 for the second.

Compared with “HMQSKDDLLDTFRVVKGNAALLNDQNKKLIRSLKVSSFGFTGITDQAAEVKKEMPDVLLEKASIEDILF”, “HMLAPLAEMRGDTLDRLEKAVLELFSSRDFHEVSLQDVARRANVSLQTIYKYFGSKEALVYTMLDTLLGR” is lower in “soluble fraction (log2)” value: -0.595 for the first, -0.87 for the second.

Going from “HMAVDVNKATAAELDSIKGIGPAISAKILEEKKKGGNFKDWNDLVTRVSGVGEANAAKFSSEGLTVGGAS” to “HMQETKDEGAQVLLNKINALVAAVQGQIITPEEAAIKLATDGDLDLDVDARVAAIEEFNKKLSEAQNN”, the “soluble fraction (log2)” value falls from 0.235 to -0.682.

Compared with “HMDYGTATASAILYLEKIDPENPYLLLAKDTITTNPKMSVNFALKGIIESKKGEKEENLNKALEIMSSL”, “HMAGTPAVVKWFNPTKGFGFVTPREAGSDALLHASVLAKQGKRWLQEGTVVEVVLEEGPKGLVVSEVLTIE” is lower in “soluble fraction (log2)” value: 0.0949 for the first, -0.469 for the second.

“HMNVDSLIGKKARVLEDIDNLNAKGQVSIDGMEWTARSEDGSEIKKDALVEVVAIEGVKAIVKQ” and “HMSALTELPVKTVNGKKYHYYVVKQHETVYALSKRFGITPEQLIKYNPSAEDGLQIDQELLFPATEI” are within 0.2 log units of each other in “soluble fraction (log2)” value: -0.127 for the first, -0.282 for the second.

“HMTERIRLHDDIGSWVEKHGATRSALIPVLQGIQRSYNEISEYAMQEVADRLDIHPVEVYSVVSFYSF” and “HMVMPTGRVRYYDAEKGFGFLSKDSGGDDVYVRSSALPAGVTSLKRGQKVEFGIIDGKRGEQALSVHLL” are within 0.2 log units of each other in “soluble fraction (log2)” value: 0.103 for the first, 0.0712 for the second.

Going from “HMDEWDPAILYVGLDYEDAAQIATRLATSGVPYRLSPDGTMITVPDDQVNNMRLTLAGEGFPH” to “HMNATLEQLTQREREIAVLMAEGLTNAQIGSRLNVSMASVKAHLSHIFTKLGVDNRVSAAMMVL”, the “soluble fraction (log2)” value rises from -1.12 to -0.0121.

Compared with “HMQAVKQIKVERGMTLEKIAQSEFGDSTRWGEIVEVNNLRAPYISDDPTETRDGVLKPGSNLLIPIP”, “HMQPQLFRVIADDGLNIRSGPGPEYPPVAPMLRKGTQVELLQAGDRWSKVEVVGSTDVEGWVNQRYLQAV” is higher in “soluble fraction (log2)” value: -0.825 for the first, 0.0927 for the second.

First: HMESLNDRIKLVFKDSGLTQMDISKRLNIAQSSVSGIISGKANPSKRTLADIADRFDVNLEWLRDGTGPMK
Second: HMSTVISPLPGNIIKVLVPEGKSVKRGDTILTIESMKMENSIKAAYDGVVKKIYVQQAQIVMQGDPLFDL
The “soluble fraction (log2)” value of the first is higher: 0.199 for the first, -1.05 for the second.

Compared with “HMSFPLKRGSKGNRVTQLQNALVKKFGASILPKYGVDGMFGKEVEAALVRAKLPTSINESTYNSFV”, “HMRETELPVTIISAGRILAENLHLAGRDGGWLEAELKRRSLTAEQVLLLTVDAAGTVYLVRKEDL” is lower in “soluble fraction (log2)” value: -0.0036 for the first, -0.617 for the second.

“HMEELTPLQKYVFDYESDISDEVDMRAIKGLENANDVYDYYANVRGWEGDPDLEDDLDNIYRQVKARFA” and “HMFINITAITGNNYNTPDAARNALPNTYNKKIGLVFTYRDLTNRYRVYLYNSETSNYIPLDSYM” are within 0.2 log units of each other in “soluble fraction (log2)” value: -1.2 for the first, -1.28 for the second.

“HMRRSLIGPTVRERRRALGITQSRLAAEVGISASYLNLIEGDKRNIGGALLQRIAGALGLALD” and “HMRTLKDSTEYLIRSMLLRGEMKVGEIYSANALAKELNISNSPVREAMMSLVDRGLLENVRNRGFRVV” are within 0.2 log units of each other in “soluble fraction (log2)” value: 0.0185 for the first, -0.115 for the second.

Going from “HMDTPMYMAIIEEVRFQIANEILKEGEQLPSIRNLAKTLKVSVITVKRAYKELEEAGYITTIPAKGSKVS” to “HMYAGTWTTESGQWKYRQDDGTYAKGWLQDTDGRWYYFDANGRMLSNTATPDGYQVGEDGAWVNH”, the “soluble fraction (log2)” value falls from -0.167 to -0.651.

First: HMLTAPMPGIVRQVNVDTGQKVRKGQPLMVLEAMKMEHQIIAPQAGKIEAIHYNEGDRVEMGSVLISIF
Second: HMRDADRYAFMQENVEDFAKDMRRKHMTYDVLYEEYIRRTDNPYGYTQFKAIVQEYEKNHDYK
The “soluble fraction (log2)” value of the first is lower: -0.538 for the first, 0.253 for the second.

Going from “HMAIPTTDSDKATDAQIKQIKLLGDIHPNLKLDAWLERNHVTWETLTREQAGNMMKAIKNKYGD” to “HMGTDFRPVFQYVDELVRAGEFTNLKGMIYFTDGRGIFPEKKPDYDAAFVFLDDGYDPPDVPVWAIKLVL”, the “soluble fraction (log2)” value falls from 0.132 to -0.709.

Compared with “HMKKPANLISEDRMVEVLYDVIIINTAKGVNKQLLQNNINNPLNYIYRSHGIDSLQFAESNAYYTS”, “HMEIGNVIAKLRVSNGLNQREFAKKLEVSNGAVAMWETNKRQPDLEMIKKISNLFDVPTDYILGAGTFQ” is higher in “soluble fraction (log2)” value: -0.798 for the first, 0.152 for the second.

First: HMDEYFNPETVVHYLRELFDTYRENGGNPFEWFHSTFESVNLNPQNYRKDLITTIEKALIEWIEIFEKQ
Second: HMNVDALIGTKGIVVQPIRPFAVGQVKVNGQVWSAVGKTPETDIEQGREVKVHAIEGVKLVVTPT
The “soluble fraction (log2)” value of the first is lower: -0.553 for the first, -0.134 for the second.

Going from “HMSGVIVPDIYNKTLAEAVASLEGEGFSTEKKEGYSDTVPKGNVMSQKPEAGTSAERGSTVTITISQGPQ” to “HMFSQDQIFLRSGEKIDARVIEVTPEFIKYKSKANPEGPLYSKKITDVLLITYANGTTEVYE”, the “soluble fraction (log2)” value falls from -0.0347 to -0.749.

“HMADASVTAYFKIAEDRLQGRLPDTFSEASLKARYQLTPAQLTAVLTRIAQEGWAERKPGYGWAFSSML” and “HMHNISQTGRRIAGMTQERWAEALDISVESVRLYESGRGMPSDDVATRMVEVSGAPVLGYWH” are within 0.2 log units of each other in “soluble fraction (log2)” value: -1 for the first, -1.08 for the second.

Compared with “HMDASFTYSLETHPAGVLVRVDGLEYETPFSILLPQGVHRLEVAGEERFFYLSETTHQFLEID”, “HMLGWEDVIQFEEVKGYGQHIWRDGNHLYYVTEEGGIAPQRVVYELPNELFALLESGERTQLEILSKLQ” is lower in “soluble fraction (log2)” value: -0.714 for the first, -2.35 for the second.

“HMVYNGYYAKSFNGYVVILNGDEKTVYEYTQIPIHLLPEDIRSSVMSGYYLENETDLYNFLENYS” and “HMAPRSSAVYFYLSQVALKKNQPRKAEAMARRGLTVSQDANRRRALWQLILRSGQAQNNTRVIREAQQAL” are within 0.2 log units of each other in “soluble fraction (log2)” value: -0.211 for the first, -0.0754 for the second.
